In patent US20040214282A1 (BOARD OF TRUSTEES OF THE UNIVERSITY OF ARKANSAS, published 2004):

Molecular target: T1, recombinant I-domain of α2 integrin subunit (human, UniProt P17301 169-366)
T1 construct: domain: I-domain; Expressed from pQE30 and purified by Ni2+-chelating chromatography; also called α2-I domain
T1 sequence: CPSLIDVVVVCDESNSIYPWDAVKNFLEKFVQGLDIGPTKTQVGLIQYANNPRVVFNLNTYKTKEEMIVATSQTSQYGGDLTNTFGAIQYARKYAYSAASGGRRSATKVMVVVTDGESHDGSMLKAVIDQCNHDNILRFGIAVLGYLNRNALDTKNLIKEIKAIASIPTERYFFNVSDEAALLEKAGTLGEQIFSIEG
Assay: SPR (BIACORE 3000), P176 immobilized on a CM5 chip, α2-I as analyte, 1 mM MgCl2; Scatchard analysis of the equilibrium responses

B1: recombinant P176 (Scl1.41 recombinant protein) (other)
chain: EDSETATARTKLLEKLTELRSQSQDRVPQTSDITQAYTLWGTSYDSVELYKYLQQIEEYLQKQKYHEEQWKKEITDGLKSGALRGEKGEAGPQGEKGLPGLTGLPGLPGERGPRGPKGDRGETGAQGPVGPQGEKGEAGTPGKDGLRGPQGDPGAPGKDGAPGEKGDRGETGAQGPVGPQGEKGEAGTPGKDGAPGEKGEKGDRGETGATGAQGPQGEAGKDGAQGPVGPQGEKGETGAQGPAGPQGEKGETGAQGPAGPQGEAGQPGEKAPEKSPEVTPTPEMPEQPGEQAPEKSKEVTPAPEKWSHPQFEK
notes: Expressed in E. coli from pSL176 (scl1.M41 allele, GenBank AY452037); also called Scl P176
- Kd: 17 nM
